B1: PRKCN(PKD3) (protein)
chain: MSANNSPPSAQKSVLPTAIPAVLPAASPCSSPKTGLSARLSNGSFSAPSLTNSRGSVHTVSFLLQIGLTRESVTIEAQELSLSAVKDLVCSIVYQKFPECGFFGMYDKILLFRHDMNSENILQLITSADEIHEGDLVEVVLSALATVEDFQIRPHTLYVHSYKAPTFCDYCGEMLWGLVRQGLKCEGCGLNYHKRCAFKIPNNCSGVRKRRLSNVSLPGPGLSVPRPLQPEYVALPSEESHVHQEPSKRIPSWSGRPIWMEKMVMCRVKVPHTFAVHSYTRPTICQYCKRLLKGLFRQGMQCKDCKFNCHKRCASKVPRDCLGEVTFNGEPSSLGTDTDIPMDIDNNDINSDSSRGLDDTEEPSPPEDKMFFLDPSDLDVERDEEAVKTISPSTSNNIPLMRVVQSIKHTKRKSSTMVKEGWMVHYTSRDNLRKRHYWRLDSKCLTLFQNESGSKYYKEIPLSEILRISSPRDFTNISQGSNPHCFEIITDTMVYFVGENNGDSSHNPVLAATGVGLDVAQSWEKAIRQALMPVTPQASVCTSPGQGKDHKDLSTSISVSNCQIQENVDISTVYQIFADEVLGSGQFGIVYGGKHRKTGRDVAIKVIDKMRFPTKQESQLRNEVAILQNLHHPGIVNLECMFETPERVFVVMEKLHGDMLEMILSSEKSRLPERITKFMVTQILVALRNLHFKNIVHCDLKPENVLLASAEPFPQVKLCDFGFARIIGEKSFRRSVVGTPAYLAPEVLRSKGYNRSLDMWSVGVIIYVSLSGTFPFNEDEDINDQIQNAAFMYPPNPWREISGEAIDLINNLLQVKMRKRYSVDKSLSHPWLQDYQTWLDLREFETRIGERYITHESDDARWEIHAYTHNLVYPKHFIMAPNPDDMEEDP
B2: RPS6KA4(MSK2) (protein)
chain: MGDEDDDESCAVELRITEANLTGHEEKVSVENFELLKVLGTGAYGKVFLVRKAGGHDAGKLYAMKVLRKAALVQRAKTQEHTRTERSVLELVRQAPFLVTLHYAFQTDAKLHLILDYVSGGEMFTHLYQRQYFKEAEVRVYGGEIVLALEHLHKLGIIYRDLKLENVLLDSEGHIVLTDFGLSKEFLTEEKERTFSFCGTIEYMAPEIIRSKTGHGKAVDWWSLGILLFELLTGASPFTLEGERNTQAEVSRRILKCSPPFPPRIGPVAQDLLQRLLCKDPKKRLGAGPQGAQEVRNHPFFQGLDWVALAARKIPAPFRPQIRSELDVGNFAEEFTRLEPVYSPPGSPPPGDPRIFQGYSFVAPSILFDHNNAVMTDGLEAPGAGDRPGRAAVARSAMMQDSPFFQQYELDLREPALGQGSFSVCRRCRQRQSGQEFAVKILSRRLEANTQREVAALRLCQSHPNVVNLHEVHHDQLHTYLVLELLRGGELLEHIRKKRHFSESEASQILRSLVSAVSFMHEEAGVVHRDLKPENILYADDTPGAPVKIIDFGFARLRPQSPGVPMQTPCFTLQYAAPELLAQQGYDESCDLWSLGVILYMMLSGQVPFQGASGQGGQSQAAEIMCKIREGRFSLDGEAWQGVSEEAKELVRGLLTVDPAKRLKLEGLRGSSWLQDGSARSSPPLRTPDVLESSGPAVRSGLNATFMAFNRGKREGFFLKSVENAPLAKRRKQKLRSATASRRGSPAPANPGRAPVASKGAPRRANGPLPPS
B3: PRKX (protein)
chain: MEAPGLAQAAAAESDSRKVAEETPDGAPALCPSPEALSPEPPVYSLQDFDTLATVGTGTFGRVHLVKEKTAKHFFALKVMSIPDVIRLKQEQHVHNEKSVLKEVSHPFLIRLFWTWHDERFLYMLMEYVPGGELFSYLRNRGRFSSTTGLFYSAEIICAIEYLHSKEIVYRDLKPENILLDRDGHIKLTDFGFAKKLVDRTWTLCGTPEYLAPEVIQSKGHGRAVDWWALGILIFEMLSGFPPFFDDNPFGIYQKILAGKIDFPRHLDFHVKDLIKKLLVVDRTRRLGNMKNGANDVKHHRWFRSVDWEAVPQRKLKPPIVPKIAGDGDTSNFETYPENDWDTAAPVPQKDLEIFKNF
B4: RPS6KB1(p70S6K) (protein)
chain: MRRRRRRDGFYPAPDFRDREAEDMAGVFDIDLDQPEDAGSEDELEEGGQLNESMDHGGVGPYELGMEHCEKFEISETSVNRGPEKIRPECFELLRVLGKGGYGKVFQVRKVTGANTGKIFAMKVLKKAMIVRNAKDTAHTKAERNILEEVKHPFIVDLIYAFQTGGKLYLILEYLSGGELFMQLEREGIFMEDTACFYLAEISMALGHLHQKGIIYRDLKPENIMLNHQGHVKLTDFGLCKESIHDGTVTHTFCGTIEYMAPEILMRSGHNRAVDWWSLGALMYDMLTGAPPFTGENRKKTIDKILKCKLNLPPYLTQEARDLLKKLLKRNAASRLGAGPGDAGEVQAHPFFRHINWEELLARKVEPPFKPLLQSEEDVSQFDSKFTRQTPVDSPDDSTLSESANQVFLGFEYVAPSVLES
B5: ROCK1 (protein)
chain: MSTGDSFETRFEKMDNLLRDPKSEVNSDCLLDGLDALVYDLDFPALRKNKNIDNFLSRYKDTINKIRDLRMKAEDYEVVKVIGRGAFGEVQLVRHKSTRKVYAMKLLSKFEMIKRSDSAFFWEERDIMAFANSPWVVQLFYAFQDDRYLYMVMEYMPGGDLVNLMSNYDVPEKWARFYTAEVVLALDAIHSMGFIHRDVKPDNMLLDKSGHLKLADFGTCMKMNKEGMVRCDTAVGTPDYISPEVLKSQGGDGYYGRECDWWSVGVFLYEMLVGDTPFYADSLVGTYSKIMNHKNSLTFPDDNDISKEAKNLICAFLTDREVRLGRNGVEEIKRHLFFKNDQWAWETLRDTVAPVVPDLSSDIDTSNFDDLEEDKGEEETFPIPKAFVGNQLPFVGFTYYSNRRYLSSANPNDNRTSSNADKSLQESLQKTIYKLEEQLHNEMQLKDEMEQKCRTSNIKLDKIMKELDEEGNQRRNLESTVSQIEKEKMLLQHRINEYQRKAEQENEKRRNVENEVSTLKDQLEDLKKVSQNSQL
B6: RPS6KA2(RSK3) (protein)
chain: MDLSMKKFAVRRFFSVYLRRKSRSKSSSLSRLEEEGVVKEIDISHHVKEGFEKADPSQFELLKVLGQGSYGKVFLVRKVKGSDAGQLYAMKVLKKATLKVRDRVRSKMERDILAEVNHPFIVKLHYAFQTEGKLYLILDFLRGGDLFTRLSKEVMFTEEDVKFYLAELALALDHLHSLGIIYRDLKPENILLDEEGHIKITDFGLSKEAIDHDKRAYSFCGTIEYMAPEVVNRRGHTQSADWWSFGVLMFEMLTGSLPFQGKDRKETMALILKAKLGMPQFLSGEAQSLLRALFKRNPCNRLGAGIDGVEEIKRHPFFVTIDWNTLYRKEIKPPFKPAVGRPEDTFHFDPEFTARTPTDSPGVPPSANAHHLFRGFSFVASSLIQEPSQQDLHKVPVHPIVQQLHGNNIHFTDGYEIKEDIGVGSYSVCKRCVHKATDTEYAVKIIDKSKRDPSEEIEILLRYGQHPNIITLKDVYDDGKFVYLVMELMRGGELLDRILRQRYFSEREASDVLCTITKTMDYLHSQGVVHRDLKPSNILYRDESGSPESIRVCDFGFAKQLRAGNGLLMTPCYTANFVAPEVLKRQGYDAACDIWSLGILLYTMLAGFTPFANGPDDTPEEILARIGSGKYALSGGNWDSISDAAKDVVSKMLHVDPHQRLTAMQVLKHPWVVNREYLSPNQLSRQDVHLVKGAMAATYFALNRTPQAPRLEPVLSSNLAQRRGMKRLTSTRL
B7: EPHB4 (protein)
chain: LCLRKQSNGREAEYSDKHGQYLIGHGTKVYIDPFTYEDPNEAVREFAKEIDVSYVKIEEVIGAGEFGEVCRGRLKAPGKKESCVAIKTLKGGYTERQRREFLSEASIMGQFEHPNIIRLEGVVTNSMPVMILTEFMENGALDSFLRLNDGQFTVIQLVGMLRGIASGMRYLAEMSYVHRDLAARNILVNSNLVCKVSDFGLSRFLEENSSDPTYTSSLGGKIPIRWTAPEAIAFRKFTSASDAWSYGIVMWEVMSFGERPYWDMSNQDVINAIEQDYRLPPPPDCPTSLHQLMLDCWQKDRNARPRFPQVVSALDKMIRNPASLKIVARENGGASHPLLDQRQPHYSAFGSVGEWLRAIKMGRYEESFAAAGFGSFELVSQISAEDLLRIGVTLAGHQKKILASVQHMKSQAKPGTPGGTGGPAPQY
B8: ROCK2 (protein)
chain: MSRPPPTGKMPGAPETAPGDGAGASRQRKLEALIRDPRSPINVESLLDGLNSLVLDLDFPALRKNKNIDNFLNRYEKIVKKIRGLQMKAEDYDVVKVIGRGAFGEVQLVRHKASQKVYAMKLLSKFEMIKRSDSAFFWEERDIMAFANSPWVVQLFYAFQDDRYLYMVMEYMPGGDLVNLMSNYDVPEKWAKFYTAEVVLALDAIHSMGLIHRDVKPDNMLLDKHGHLKLADFGTCMKMDETGMVHCDTAVGTPDYISPEVLKSQGGDGFYGRECDWWSVGVFLYEMLVGDTPFYADSLVGTYSKIMDHKNSLCFPEDAEISKHAKNLICAFLTDREVRLGRNGVEEIRQHPFFKNDQWHWDNIRETAAPVVPELSSDIDSSNFDDIEDDKGDVETFPIPKAFVGNQLPFIGFTYYRENLLLSDSPSCRETDSIQSRKNEESQEIQKKLYTLEEHLSNEMQAKEELEQKCKSVNTRLEKTAKELEEEITLRKSVESALRQLEREKALLQHKNAEYQRKADHEADKKRNLENDVNSLKDQLEDLKKRNQNSQI
B9: RPS6KA1(RSK1) (protein)
chain: MPLAQLKEPWPLMELVPLDPENGQTSGEEAGLQPSKDEGVLKEISITHHVKAGSEKADPSHFELLKVLGQGSFGKVFLVRKVTRPDSGHLYAMKVLKKATLKVRDRVRTKMERDILADVNHPFVVKLHYAFQTEGKLYLILDFLRGGDLFTRLSKEVMFTEEDVKFYLAELALGLDHLHSLGIIYRDLKPENILLDEEGHIKLTDFGLSKEAIDHEKKAYSFCGTVEYMAPEVVNRQGHSHSADWWSYGVLMFEMLTGSLPFQGKDRKETMTLILKAKLGMPQFLSTEAQSLLRALFKRNPANRLGSGPDGAEEIKRHVFYSTIDWNKLYRREIKPPFKPAVAQPDDTFYFDTEFTSRTPKDSPGIPPSAGAHQLFRGFSFVATGLMEDDGKPRAPQAPLHSVVQQLHGKNLVFSDGYVVKETIGVGSYSECKRCVHKATNMEYAVKVIDKSKRDPSEEIEILLRYGQHPNIITLKDVYDDGKHVYLVTELMRGGELLDKILRQKFFSEREASFVLHTIGKTVEYLHSQGVVHRDLKPSNILYVDESGNPECLRICDFGFAKQLRAENGLLMTPCYTANFVAPEVLKRQGYDEGCDIWSLGILLYTMLAGYTPFANGPSDTPEEILTRIGSGKFTLSGGNWNTVSETAKDLVSKMLHVDPHQRLTAKQVLQHPWVTQKDKLPQSQLSHQDLQLVKGAMAATYSALNSSKPTPQLKPIESSILAQRRVRKLPSTTL

The data set concerns the target T1, Bovine, dephosphorylated, Myelin Basic Protein (MBP), P02687.
T1 chain: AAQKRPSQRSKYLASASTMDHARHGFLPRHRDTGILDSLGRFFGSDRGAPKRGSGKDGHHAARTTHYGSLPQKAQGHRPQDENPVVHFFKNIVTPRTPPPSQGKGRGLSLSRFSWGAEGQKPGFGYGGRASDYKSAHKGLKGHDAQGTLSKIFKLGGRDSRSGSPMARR
As for B1, the “MBP Kinase Activity” value is “Weak”.

For B2, the “MBP Kinase Activity” value is “Weak”.

In the case of B3, the “MBP Kinase Activity” value is “Negative”.

For B4, the “MBP Kinase Activity” value is on record as “Negative”.

Consider B5, for which the “MBP Kinase Activity” value was “Strong”.

On to B6, for which the “MBP Kinase Activity” value was “Negative”.

On to B7, for which the “MBP Kinase Activity” value was “Strong”.

On to B8, for which the “MBP Kinase Activity” value is given as “Strong”.

On to B9, for which the “MBP Kinase Activity” value is recorded as “Strong”.

The values above are taken from US20090099029.
